# Data reported in the nanobody polyreactivity screen of Harvey et al. (2022).
# Test: yeast display, Sf9 membrane polyspecificity reagent, FACS + sequencing; frameworks hold sequencing errors
# In short: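 Galactose-induced (36–48 hours) yeast carrying a synthetic nanobody display library were exposed to 10% biotinylated, detergent-solubilized Sf9 membrane reagent at 4 °C for 1 hour. FACS followed streptavidin microbead enrichment, using low and high (top ~1%) gates for expression (anti-HA) and reagent binding (streptavidin). Colony PCR, MiSeq 2 × 250 sequencing and CDR-length filtering followed. Labels for polyreactivity reflect the gate of origin.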
row,Sequence,polyreactivity (PSR sort gate)
1,QVHLVESGGGLVQAGGSLRLSCAASGFTFSTYTMGWYRQSPGKERELVAAIRRSGDSTYYADSVKGRFTISRDNAKNTVYLQMNSLKPVDTAVYYCNAVLYRFERFDYWGQGTQVTVSS,high polyreactivity
2,QVHLVESGGGLVQAGGSLRLSCAASGFTFVFYTMGWYRPAPGKERELVAAISHTGDSTYYADSVKGRFTISRDNAKNTVYFQMNSLKPEDTAVYYCATDLYTADPDPSPTYKFEYWGQGTQVTVSS,low polyreactivity
3,QVHLVESGGGLVQAGGSLRLSCAASGFTFYKYVMGWYRQAPGKERELVAAITTSGGSTYYADSVKGRFTISRDNAKNTVYLQMNSLKPEDTAVYYCNARSLHTSEGDYWGQGTQVTVSS,low polyreactivity
4,QVHLVESGGGLVQAGGSLRLSCAASGFTFYSYAMGWYRPPPGKEREFVAAITIGGGSTNYADSVKGRFTISRDIAKNTVYLQMNSLKPEDTAVYYCNVDYTLHFGYWGQGTQVTVSS,low polyreactivity
5,QVHLVESGGGLVQAGGSLRLSCAASGFTIDYYAMAWYRQAPGKERELDAAISRAGSTNYADSVKGRFTISRDNAKNTVYLQMNSLKPEDTAVYYCNKGYHSWSRLSQFGWSYDYWGQGTQVTVSS,high polyreactivity
6,QVHLVESGGGLVQAGGSLRLSCAASGGIFYINSMGWYRQAPGKERELVAAITGGASTYYADSVKGRFTISRDNAKNTVYLQMNSLNPEDTAVYYCAARPSSRRVYPAYLYGYWGQGTQVSVSS,high polyreactivity
7,QVHLVESGGGLVQAGGSLRLSCAASGGTIAFNGMGWYRQAPGKDRELVAAITWRSGSTYYADSVKGRFTISRDNPKNPVYLQMNSLKPDDTAVYYCNAARAVYTQKRFDSWGQGTQVTVSS,high polyreactivity
8,QVHLVESGGGLVQAGGSLRLSCAASGIIFRRYAMGWYRQAPGKERELVAAISSRGGSTYYADSVKRRFTISRDNAKNTVYLQMNSLKPEDTAVYYCAKGFSGTGGSGDFGYWGQGTQVTVSS,high polyreactivity
9,QVHLVESGGGLVQAGGSLRLSCAASGITFEGYAMGWYRQAPGKERELVAAIRSSGTSTYYADSVKGRFTISRDNAKNTVYLQMNSLKPEDTAVYYCNRARSSSRYDYWGQGTQVTVSS,low polyreactivity
10,QVHLVESGGGLVQAGGSLRLSCAASGITFLKYAMGWYRQAPGKERELVARITSGGRTYYADSVKGRFTISRDNAKNTVYLLMNSLKPEDTAVYYCNAVKSYASLYAGFYYWGQGTHVTVSS,high polyreactivity
11,QVHLVESGGGLVQAGGSLRLSCAASGITFYRYAMGWYRLAPGTERELVAAISSSGGSTYYADSVKGRFTISRDNAKNTVYLQMNSLKPEDTAVYYCAAQYNVPRDKYYFWGQGTQVTVSS,high polyreactivity
12,QVHLVESGGGLVQAGGSLRLSCAASGLTFHVYAMGWYRQAPGKERELVAAISWSGGSTYYADSVKGRFTISRDNAKNTVYLQMNSLKPEDTAVYYCAAESLSQGIWYDYWGQGTQVTVSS,high polyreactivity
13,QVHLVESGGGLVQAGGSLRLSCAASGNTFGRYAMGWYRQAPGKEREFVAAIRWRGATTYYADSVKGRFTISRDNAKNTVDLQMNSLKPEDTAVYYCAAYYWGQGTGFDYWGQGTQVTVSS,high polyreactivity
14,QVHLVESGGGLVQAGGSLRLSCAASGRIFAGYARGWYRQAPGKERELVAAISDGGTTNYADSVKGRFTISRDNAKNTVYLQMNSLKPEDTAVYYGAKDAAESYRYGYWGQGTQVSVSS,low polyreactivity
15,QVHLVESGGGLVQAGGSLRLSCAASGRIFAYNAMGWYRQAPGKERELVAAITSRGTSTYYADSVKGRFTISRDNAKNTVYLQMNSLKQEDTAVYYCNADYNRNSVQVSLYDYWGQGTQVTVSS,low polyreactivity
16,QVHLVESGGGLVQAGGSLRLSCAASGRIFGAYTMGWYRQAPGKERELVAAIAGRTYYADSVKGRFTISRDNAKYTVYLQMNSLKPEETAVYYFADRYKSRNYDYWGQGTQVTVSS,high polyreactivity
17,QVHLVESGGGLVQAGGSLRLSCAASGRIFKTYAMRWYRQAPGKERELVAAITASGGRTYDADSVKGRFTISRDNAKNTVYLQMNSLTPEDSAVYYCAAPLLRDLRSPYYYNYWGQGTQVTVSS,low polyreactivity
18,QVHLVESGGGLVQAGGSLRLSCAASGRIFRRNTMGWYRQAPGKERELVAAITSSGGSTYADSVKGRFTISRDNAKNTVYLQMNSLKPEDTAVYYCATYVAYHRGYRTYDHWGQGTQVTVSS,low polyreactivity
19,QVHLVESGGGLVQAGGSLRLSCAASGRIFRRYAMGWSRQAPGKERELVAAISSGGSTYYADSVKGRFTISRDNAKNTVYLQMNSLKPEDTAVYYCNAKVGAYLNYGYWGQGTQVTVSS,low polyreactivity
20,QVHLVESGGGLVQAGGSLRLSCAASGRIFRYYAIGWYRQAPGKERELVAAITWRGDSTYYADSVKGRFTISRDNAKNTVYLQMNSLKPEDTAVYYCNKRWTDKYDSWGQGTQVTVSS,high polyreactivity
21,QVHLVESGGGLVQAGGSLRLSCAASGRIFSGYAMGWYRQAPGKERELVAAITSGASTNYADSVNGRFTISRDNPKITVYLQLNSLKPVVTAFYYCAATFHSWRGQYLWYDYWGQGTQVTVSS,low polyreactivity

row,Sequence,polyreactivity (PSR sort gate)
1,QVHLVESGGGLVQAGGSLRLSCAASGRIFSSNAMGWYRQAPGKERELVAAISWIVGRTYYADSVKGRFTISRDNAKNTVYLQMNRLKPEDTAVYYCAKGSYYGRKRGWGYYYWGQGTQVTVSS,high polyreactivity
2,QVHLVESGGGLVQAGGSLRLSCAASGRIFTRNAMVWYRQAPGKERELVAAISHSGGSTYADSVKGRFTISRDNAKNTVYLQMNSLKPEDTAVYYCAAKYYFEWNSALDYWGQGTQVTVSS,low polyreactivity
3,QVHLVESGGGLVQAGGSLRLSCAASGRIFVTYAMGWYRQAPGKERELVAAIPWDGDSTYYADSVKGRFTFSRDNAKNTVYLQMNSLKREDTAVYYCNAKKFNSHVELGYDYWGQGTQVTVSS,low polyreactivity
4,QVHLVESGGGLVQAGGSLRLSCAASGRIFYSHAMGWYRQAPGKEREFVAAISWSGGGTYYADSVKGRFTISRDNAKNTVYLQMNSLKPQDTAVYYCAARFRYYGSEYDYWGQGTKVTVSS,low polyreactivity
5,QVHLVESGGGLVQAGGSLRLSCAASGRIIRYNAMGWYRQAPGKERELDAAITRSGGSTYYADSVKGRFTISRDNAKNTVYLQMNSLKPEDTGVYYCAKVQNGQWSTSGVPGDYQYNYWGQATQVTVSS,high polyreactivity
6,QVHLVESGGGLVQAGGSLRLSCAASGRNFSSYAMGWYRQAPGKEWELVAAIRRGGGSTSYADSVKGRFTISRDNAKKTVYLQMNSLKPEDTAVYYCAADSPRGQVHYIGGYWGHGTQVTVSS,low polyreactivity
7,QVHLVESGGGLVQAGGSLRLSCAASGRTFATNTMGWYRQAPGKEREFVAAISRGGVSTSYADSVKGRFTISRDNAKNTVYLQMNSLKPEDTAVYYCAAKHYGFNRNHRHSYDYWGQGTQVTVSS,high polyreactivity
8,QVHLVESGGGLVQAGGSLRLSCAASGRTFDRYDMGWYRQAPGKEWELVATISSSGGSTYYADSVKGRFTISRDNEKNTVYLQMNSLKPEDTAVYYCAADPSGDYWGQGTQVTVSS,low polyreactivity
9,QVHLVESGGGLVQAGGSLRLSCAASGRTFINYAMGWYRQAPGKERELVAAITTGGRTNYADSVKGRFTISRDNAKNTVYLQMNSLKPEDTAVYYCAADRYYWGRYTLNYWGQGTQVTVSS,low polyreactivity
10,QVHLVESGGGLVQAGGSLRLSCAASGRTFIRYTMGWYRQAPGKEREFVAAINTSGGRTYYADSVKGRFTISRDNAKNTVYLQMNSLKPEDTAVYYCAAGYSASRKVDYWGQGTQVTVSS,high polyreactivity
11,QVHLVESGGGLVQAGGSLRLSCAASGRTFPSYAMGWYRQAPGKERELVAAISSSGGSTYYADSVKGRFTISRDNAKNTVYLQMNSLKPEDTAVYYCAAATPSGYYYWGQGTQVTVSS,high polyreactivity
12,QVHLVESGGGLVQAGGSLRLSCAASGRTFREYFMGWYRQAPGQERELVAVISWSTGSTYADSVKGRFTISRDNAKNTVYLQMNSLKPEDTAVYYCARRVQSLRNVVIYNYWGQGTQVTVSS,low polyreactivity
13,QVHLVESGGGLVQAGGSLRLSCAASGRTFRKYAMGWYRQAPGKERELVAAISSSGGRTYYADSVKGRFTISRDNAKNTVYLQMNSLKPEDTAVYYCAAKQGNRNSYKYDYWGQGTQVTVSS,high polyreactivity
14,QVHLVESGGGLVQAGGSLRLSCAASGRTFRYYAMGWYRPAPGKERELVAAISSSGDRTYYADSVKGRFTISRDNAKNTVYLQMNSLKPEDTSVYYCAADRGARGDYYWGQGTQVTVSS,high polyreactivity
15,QVHLVESGGGLVQAGGSLRLSCAASGRTFRYYAMGWYRQAPGKERELVASISSTGGNTYYADSVKGRFTISRDNAKNTVYLQMNSLKPEDTAVYYCAAGAWTRGQYYYWGQGTQVTVSS,high polyreactivity
16,QVHLVESGGGLVQAGGSLRLSCAASGRTFWSYAMGWYRQAPGKERELVAAISWRSGTTYYADSVKGRFTISRDNAKNTVYLQMNSLKPEDTAVYYCNAHSNYRGDYWGQGTQVTVSS,high polyreactivity
17,QVHLVESGGGLVQAGGSLRLSCAASGRTFWVYAMGWYRQAPGKERQLVAAINRRGGGTYYADSVKGRFTISRDNAKNTVYLQMNTLKPEDTAVYYCAAVSTRVRVNYDSWGQGTQVTVSS,high polyreactivity
18,QVHLVESGGGLVQAGGSLRLSCAASGRTFYGNAMGWYRQATGKERELVAAINRDGGTYYADSVKGRFTISRDNAKNTVYLQMNSLKTEDTAVYYCNAVKRGIRYGYWGQGTQVTVSS,high polyreactivity
19,QVHLVESGGGLVQAGGSLRLSCAASGRTFYSYAMGWYRQAHGKERELVAAINTSGGRKHYADSVKGRFTISRDNAKNTVYLQMNSLKPEDTAVYYCAARYLGGRLSGDYSRYYWGQGTQVTVSS,high polyreactivity
20,QVHLVESGGGLVQAGGSLRLSCAASGRTFYVYAMGWYIQAPGKERELVATITSRGGRTYYADSVKGRFTISRDNAKNTVYLQMNSLKPEDTAVYYCNAAWWKVSYVRQKYYYWGQGTQVTVSS,high polyreactivity
